Results published in publication PMC6091153.
Values joined by “and” are separate entries in the source; they are usually repeats but may differ in a detail not shown here. Identical values can stand only once.

Target: Saccharomyces cerevisiae glutaredoxin Grx6 (recombinant, without the signal peptide) (S. cerevisiae) (UniProt Q12438)
Assay: SEC; gel filtration of freshly purified recombinant protein on a Superdex 75 column, elution followed at 280 nm and 430 nm; the dimer peak is brown (Fe-S centre); FeSO4·7H2O and (NH4)2Fe(SO4)2·6H2O added in one run (more dimer and tetramer)

Substance: Saccharomyces cerevisiae glutaredoxin Grx6 (recombinant, without the signal peptide) (from UniProt Q12438 30-231) (natural protein)
- stoichiometry N: 4 and 2
